According to IntAct's records for PubMed 20937695:

B1: "Na(+)/H(+) exchange regulatory cofactor NHE-RF1" (Homo sapiens), O14745 (parent)
chain: MSADAAAGAPLPRLCCLEKGPNGYGFHLHGEKGKLGQYIRLVEPGSPAEKAGLLAGDRLVEVNGENVEKETHQQVVSRIRAALNAVRLLVVDPETDEQLQKLGVQVREELLRAQEAPGQAEPPAAAEVQGAGNENEPREADKSHPEQRELRPRLCTMKKGPSGYGFNLHSDKSKPGQFIRSVDPDSPAEASGLRAQDRIVEVNGVCMEGKQHGDVVSAIRAGGDETKLLVVDRETDEFFKKCRVIPSQEHLNGPLPVPFTNGEIQKENSREALAEAALESPRPALVRSASSDTSEELNSQDSPPKQDSTAPSSTSSSDPILDFNISLAMAKERAHQKRSSKRAPQMDWSKKNELFSNL
partner: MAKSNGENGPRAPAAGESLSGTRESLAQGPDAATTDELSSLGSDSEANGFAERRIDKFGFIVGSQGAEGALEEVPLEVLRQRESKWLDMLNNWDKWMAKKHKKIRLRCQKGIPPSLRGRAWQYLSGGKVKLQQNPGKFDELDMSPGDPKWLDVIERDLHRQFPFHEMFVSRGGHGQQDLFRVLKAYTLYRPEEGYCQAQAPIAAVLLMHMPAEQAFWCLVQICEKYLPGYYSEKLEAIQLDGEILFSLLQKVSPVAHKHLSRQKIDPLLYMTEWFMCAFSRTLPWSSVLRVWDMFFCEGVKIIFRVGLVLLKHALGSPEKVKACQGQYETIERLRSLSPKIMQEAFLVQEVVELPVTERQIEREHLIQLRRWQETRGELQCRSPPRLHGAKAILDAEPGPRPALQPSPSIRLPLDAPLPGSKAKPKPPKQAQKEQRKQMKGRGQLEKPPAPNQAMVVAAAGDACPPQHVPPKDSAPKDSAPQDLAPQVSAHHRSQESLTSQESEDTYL
B2: "Na(+)/H(+) exchange regulatory cofactor NHE-RF1" (Homo sapiens), O14745 (parent)
chain: B1 chain

Variants of: B1
Conditions: with tb10a_human TBC1D10A

Variant | effect of a mutation on the interaction
MSADAAAGAPLPRLCCLEKGPNGYGFHLHGEKGKLGQYIRLVEPGSPAEKAGLLAGDRLVEVNGENVEKETHQQVVSRIRAALNAVRLLVVDPETDEQLQKLGVQVREELLRAQEAPGQAEPPAAAEVQGAGNENEPREADKSHPEQRELRPRLCTMKKGPAGYGFNLHSDKSKPGQFIRSVDPDSPAEASGLRAQDRIVEVNGVCMEGKQHGDVVSAIRAGGDETKLLVVDRETDEFFKKCRVIPSQEHLNGPLPVPFTNGEIQKENSREALAEAALESPRPALVRSASSDTSEELNSQDSPPKQDSTAPSSTSSSDPILDFNISLAMAKERAHQKRAAKRAPQMDWSKKNELFSNL [S162A;S339A;S340A] | with no effect

Variants of: B2
Conditions: with ezri_human EZR

Variant | effect of a mutation on the interaction
MSADAAAGAPLPRLCCLEKGPNGYGFHLHGEKGKLGQYIRLVEPGSPAEKAGLLAGDRLVEVNGENVEKETHQQVVSRIRAALNAVRLLVVDPETDEQLQKLGVQVREELLRAQEAPGQAEPPAAAEVQGAGNENEPREADKSHPEQRELRPRLCTMKKGPSGYGFNLHSDKSKPGQFIRSVDPDSPAEASGLRAQDRIVEVNGVCMEGKQHGDVVSAIRAGGDETKLLVVDRETDEFFKKCRVIPSQEHLNGPLPVPFTNGEIQKENSREALAEAALEAPRPALVRSASSDTSEELNSQDAPPKQDSTAPSSTSSSDPILDFNISLAMAKERAHQKRSSKRAPQMDWSKKNELFSNL [S280A;S302A] | decreasing interaction strength
MSADAAAGAPLPRLCCLEKGPNGYGFHLHGEKGKLGQYIRLVEPGSPAEKAGLLAGDRLVEVNGENVEKETHQQVVSRIRAALNAVRLLVVDPETDEQLQKLGVQVREELLRAQEAPGQAEPPAAAEVQGAGNENEPREADKSHPEQRELRPRLCTMKKGPDGYGFNLHSDKSKPGQFIRSVDPDSPAEASGLRAQDRIVEVNGVCMEGKQHGDVVSAIRAGGDETKLLVVDRETDEFFKKCRVIPSQEHLNGPLPVPFTNGEIQKENSREALAEAALESPRPALVRSASSDTSEELNSQDSPPKQDSTAPSSTSSSDPILDFNISLAMAKERAHQKRDDKRAPQMDWSKKNELFSNL [S162D;S339D;S340D] | decreasing interaction strength
MSADAAAGAPLPRLCCLEKGPNGYGFHLHGEKGKLGQYIRLVEPGSPAEKAGLLAGDRLVEVNGENVEKETHQQVVSRIRAALNAVRLLVVDPETDEQLQKLGVQVREELLRAQEAPGQAEPPAAAEVQGAGNENEPREADKSHPEQRELRPRLCTMKKGPSGYGFNLHSDKSKPGQFIRSVDPDSPAEASGLRAQDRIVEVNGVCMEGKQHGDVVSAIRAGGDETKLLVVDRETDEFFKKCRVIPSQEHLNGPLPVPFTNGEIQKENSREALAEAALEDPRPALVRSASSDTSEELNSQDDPPKQDSTAPSSTSSSDPILDFNISLAMAKERAHQKRSSKRAPQMDWSKKNELFSNL [S280D;S302D] | decreasing interaction strength
MSADAAAGAPLPRLCCLEKGPNGYGFHLHGEKGKLGQYIRLVEPGSPAEKAGLLAGDRLVEVNGENVEKETHQQVVSRIRAALNAVRLLVVDPETDEQLQKLGVQVREELLRAQEAPGQAEPPAAAEVQGAGNENEPREADKSHPEQRELRPRLCTMKKGPAGYGFNLHSDKSKPGQFIRSVDPDSPAEASGLRAQDRIVEVNGVCMEGKQHGDVVSAIRAGGDETKLLVVDRETDEFFKKCRVIPSQEHLNGPLPVPFTNGEIQKENSREALAEAALESPRPALVRSASSDTSEELNSQDSPPKQDSTAPSSTSSSDPILDFNISLAMAKERAHQKRAAKRAPQMDWSKKNELFSNL [S162A;S339A;S340A] | decreasing interaction strength

Variants of: B2
Conditions: with ezri_human EZR
Remark: another data set of the same source

Variant | effect of a mutation on the interaction
MSADAAAGAPLPRLCCLEKGPNGYGFHLHGEKGKLGQYIRLVEPGSPAEKAGLLAGDRLVEVNGENVEKETHQQVVSRIRAALNAVRLLVVDPETDEQLQKLGVQVREELLRAQEAPGQAEPPAAAEVQGAGNENEPREADKSHPEQRELRPRLCTMKKGPSGYGFNLHSDKSKPGQFIRSVDPDSPAEASGLRAQDRIVEVNGVCMEGKQHGDVVSAIRAGGDETKLLVVDRETDEFFKKCRVIPSQEHLNGPLPVPFTNGEIQKENSREALAEAALESPRPALVRSASSDTSEELNSQDSPPKQDSTAPSSTSSSDPILDFNISLAMAKERAHQKRSSKRAPQADASKKNELFSNL [M346A;W348A] | decreasing interaction strength
MSADAAAGAPLPRLCCLEKGPNGYGFHLHGEKGKLGQYIRLVEPGSPAEKAGLLAGDRLVEVNGENVEKETHQQVVSRIRAALNAVRLLVVDPETDEQLQKLGVQVREELLRAQEAPGQAEPPAAAEVQGAGNENEPREADKSHPEQRELRPRLCTMKKGPSGYGFNLHSDKSKPGQFIRSVDPDSPAEASGLRAQDRIVEVNGVCMEGKQHGDVVSAIRAGGDETKLLVVDRETDEFFKKCRVIPSQEHLNGPLPVPFTNGEIQKENSREALAEAALESPRPALVRSASSDTSEELNSQDSPPKQDSTAPSSTSSSDPILDFNISLAMAKERAHQKRSSKRAPQMDWSKKNELASNL [F355A] | with no effect
MSADAAAGAPLPRLCCLEKGPNGYGFHLHGEKGKLGQYIRLVEPGSPAEKAGLLAGDRLVEVNGENVEKETHQQVVSRIRAALNAVRLLVVDPETDEQLQKLGVQVREELLRAQEAPGQAEPPAAAEVQGAGNENEPREADKSHPEQRELRPRLCTMKKGPSGYGFNLHSDKSKPGQFIRSVDPDSPAEASGLRAQDRIVEVNGVCMEGKQHGDVVSAIRAGGDETKLLVVDRETDEFFKKCRVIPSQEHLNGPLPVPFTNGEIQKENSREALAEAALESPRPALVRSASSDTSEELNSQDSPPKQDSTAPSSTSSSDPILDFNISLAMAKERAHQKRSSKRAPQMDWSKKNELRSNL [F355R] | disrupting interaction strength
